The sequences below were run on Escherichia coli TOP10 (assay: shrunken log2 fold change of peptide-encoding DNA abundance (4.5 h post-induction vs induction); higher = less antimicrobial activity (less host growth inhibition)). Settings: time post-induction: 4.5 h; library: site-saturation at positions 5, 18, 19, 20.
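Also: peptides expressed intracellularly from a pBAD plasmid library in pooled LB shake-flask culture, induced with 0.3% L-arabinose, DNA abundance read by NGS, three biological replicates, DESeq2 with apeglm shrinkage.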

Row | Sequence | shrunken log2 fold change
1 | RRIRIRPPRLPRPRPRPSGKPRP | -0.146
2 | RRIRVRPPRLPRPRPRPSWFPRP | -0.262
3 | RRIRLRPPRLPRPRPRPMKSPRP | 0.00719
4 | RRIRQRPPRLPRPRPRPMKLPRP | 0.00355
5 | RRIRIRPPRLPRPRPRPVHPPRP | -0.0793
6 | RRIRFRPPRLPRPRPRPIENPRP | -0.193
7 | RRIRTRPPRLPRPRPRPLRAPRP | 1.05
8 | RRIRKRPPRLPRPRPRPRFGPRP | 0.217
9 | RRIRERPPRLPRPRPRPDSSPRP | -0.509
10 | RRIRDRPPRLPRPRPRPKPWPRP | 0.46
11 | RRIRRRPPRLPRPRPRPTTIPRP | -0.12
12 | RRIRSRPPRLPRPRPRPHKNPRP | -0.283
13 | RRIRWRPPRLPRPRPRPWIIPRP | -0.267
14 | RRIRRRPPRLPRPRPRPEDRPRP | -0.154
15 | RRIRRRPPRLPRPRPRPKWQPRP | -0.175
16 | RRIRMRPPRLPRPRPRPDGHPRP | 0.0101
17 | RRIRRRPPRLPRPRPRPWCYPRP | -0.439
18 | RRIRGRPPRLPRPRPRPVNRPRP | -0.0382
19 | RRIRWRPPRLPRPRPRPPAIPRP | 0.178
20 | RRIRTRPPRLPRPRPRPKKHPRP | -0.265

Row | Sequence | shrunken log2 fold change
21 | RRIRERPPRLPRPRPRPKANPRP | 0.0174
22 | RRIRIRPPRLPRPRPRPLSSPRP | -0.143
23 | RRIRGRPPRLPRPRPRPIISPRP | 0.507
24 | RRIRQRPPRLPRPRPRPNIDPRP | -0.516
25 | RRIRMRPPRLPRPRPRPFFFPRP | 0.365
26 | RRIRSRPPRLPRPRPRPWWYPRP | -0.0611
27 | RRIRHRPPRLPRPRPRPVQAPRP | 0.00472
28 | RRIRARPPRLPRPRPRPKMEPRP | 0.229
29 | RRIRTRPPRLPRPRPRPPSDPRP | 0.498
30 | RRIRYRPPRLPRPRPRPGNCPRP | -0.152
31 | RRIRPRPPRLPRPRPRPRQIPRP | -0.0965
32 | RRIRPRPPRLPRPRPRPCTKPRP | -0.244
33 | RRIRGRPPRLPRPRPRPCVVPRP | 0.293
34 | RRIRKRPPRLPRPRPRPLNMPRP | 0.0134
35 | RRIRARPPRLPRPRPRPCARPRP | 0.786
36 | RRIRDRPPRLPRPRPRPDYPPRP | 0.00388
37 | RRIRYRPPRLPRPRPRPSPFPRP | 0.0737
38 | RRIRRRPPRLPRPRPRPMIYPRP | -0.305
39 | RRIRYRPPRLPRPRPRPYRNPRP | -0.0228
40 | RRIRHRPPRLPRPRPRPNMNPRP | -0.424

Row | Sequence | shrunken log2 fold change
41 | RRIRYRPPRLPRPRPRPFMIPRP | -1.21
42 | RRIRGRPPRLPRPRPRPKHCPRP | 0.216
43 | RRIRGRPPRLPRPRPRPNRDPRP | 0.0612
44 | RRIRIRPPRLPRPRPRPAIIPRP | -1.09
45 | RRIRIRPPRLPRPRPRPRCHPRP | -0.466
46 | RRIRSRPPRLPRPRPRPESWPRP | 0.762
47 | RRIRRRPPRLPRPRPRPGWDPRP | 0.0298
48 | RRIRSRPPRLPRPRPRPEEWPRP | -0.0481
49 | RRIRLRPPRLPRPRPRPVTCPRP | -0.125
50 | RRIRYRPPRLPRPRPRPYGSPRP | -0.843
51 | RRIRPRPPRLPRPRPRPCIYPRP | -0.536
52 | RRIRYRPPRLPRPRPRPGDLPRP | 0.0641
53 | RRIRARPPRLPRPRPRPFNRPRP | -0.277
54 | RRIRERPPRLPRPRPRPYHMPRP | -0.021
55 | RRIRIRPPRLPRPRPRPCANPRP | -0.234
56 | RRIRCRPPRLPRPRPRPCMYPRP | -0.0898
57 | RRIRQRPPRLPRPRPRPWSVPRP | -0.0201
58 | RRIRPRPPRLPRPRPRPGIMPRP | -0.2
59 | RRIRKRPPRLPRPRPRPTVKPRP | 0.19
60 | RRIRYRPPRLPRPRPRPYPSPRP | -0.248

Source: the supplement of paper PMC9112550, “Optimization of the antimicrobial peptide Bac7 by deep mutational scanning” (BMC Biology, 2022)
